This data set is described as follows: yeast display, Sf9 membrane polyspecificity reagent, FACS + sequencing; frameworks hold sequencing errors. The gist of the method: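 Nanobodies came from a synthetic yeast display library in Saccharomyces cerevisiae BJ5465, induced with galactose for 36–48 hours and stained for 1 hour at 4 °C with 10% biotinylated, detergent-solubilized Sf9 membrane reagent. Cells were enriched on streptavidin microbeads and then FACS-sorted, with low and high (top ~1%) gates set on anti-HA fluorescence for expression and streptavidin fluorescence for reagent binding. Each polyreactivity label reflects the gate a clone came from. Genes were amplified by colony PCR, sequenced by MiSeq 2 × 250 and filtered by CDR length.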
On to “QVQLVESGGGLVQAGGSLRLSCAASGFIFKYYAMGWYRQAPGKERELVAAIRSGGGTNYADSVKGRFTISRDNAKNTVYLQMNSLKPEDTAVYYCAARGYTSYKHFGYWGQGTQVTVSS”, for which the “polyreactivity (PSR sort gate)” value is on record as “high polyreactivity”.

For the sequence “QVQLVESGGGLVQAGGSLRLSCAASGFIFKYYAMGWYRQAPGKERELVAAITGSGGRTYYADSVKGRFTISRDNAKNTVYLQMNSLKPEDTAVYYCAADLGGNSRLDYWGQGTQVTVSS”, the “polyreactivity (PSR sort gate)” value is listed as “high polyreactivity”.

As to “QVQLVESGGGLVQAGGSLRLSCAASGFIFKYYTMGWYRQAPGKERELVAAISKNAGSTYYADSVKGRFTISRDNAKNTVYLQMNSLKPEDTAVYYCARTYSTWYYYWGQGTQVTVSS”, the “polyreactivity (PSR sort gate)” value is “high polyreactivity”.

For the sequence “QVQLVESGGGLVQAGGSLRLSCAASGFIFLEYAMGWYRQAPGKERELVAAISSRGTRTYYADSVKGRFTISRDNAKNTVYLQMNSLKPEDSAVYYCARVWSQSSNYEYDYWGQGTQVTVSS”, the “polyreactivity (PSR sort gate)” value is listed as “high polyreactivity”.

Consider “QVQLVESGGGLVQAGGSLRLSCAASGFIFLKYRMGWYRQAPGKEREFVAAISRRGGSTNYADSVKGRFTISRDNEKNTVYLQMNSLKPEDTAVYYCGTDAFAGPVSYYYWGQGTQVSVSS”, for which the “polyreactivity (PSR sort gate)” value was “high polyreactivity”.

For “QVQLVESGGGLVQAGGSLRLSCAASGFIFLRYGMGWYRQAPGKERELVASIDSSGGSTYADSVKGRFTISRDNEKNTVFLQMKSLKPEDTAVYYCAADYYIVSVRDYWGQGTQVTVSS”, the “polyreactivity (PSR sort gate)” value was “low polyreactivity”.

“QVQLVESGGGLVQAGGSLRLSCAASGFIFLYNAMGWYRQAPGKERELVAAITSSGGTTYYADSVKGRFTISRDNAKNTVYLQMNSLKPEDTAVYYCAARYTGRNGGSTTPEYDYWGQGTQVTVSS”: the “polyreactivity (PSR sort gate)” value is “low polyreactivity”.

Regarding “QVQLVESGGGLVQAGGSLRLSCAASGFIFLYYAMGWYRQAPGKERELVAAITTRGGRTYYADSVKGRFTISRDNAKNTVYLQMNSLIPEDTAVYYCAADHLYWGLEYESWGQGTQVTVSS”, the “polyreactivity (PSR sort gate)” value is listed as “low polyreactivity”.

On to “QVQLVESGGGLVQAGGSLRLSCAASGFIFNFYAMGWYRQAPGKERELVAAISRNGGSTYYADSVKGRFTISRDNAKNTVYLQMNSLKPEDTAVYYCNAVGSYGDFGYWGQGTQVTVSS”, for which the “polyreactivity (PSR sort gate)” value is reported as “high polyreactivity”.

“QVQLVESGGGLVQAGGSLRLSCAASGFIFNHYAMAWYRQAPGKEREFVAAISWSGGSTYYADSVNGRFTISLDNAKNTVYLQMNSLKPEDTAVYYCGASYNGLWHGDYDYWGQGTQVTVSS”: the “polyreactivity (PSR sort gate)” value was “low polyreactivity”.

As to “QVQLVESGGGLVQAGGSLRLSCAASGFIFNRYAMGRYRQAPGKERELVAAISSGGNTHYADSVKWRFTISRDNAKNTVLLQMNSLKPEDTAVYYCAKAFRHSTFFAPYDYWGQGSQVTVSS”, the “polyreactivity (PSR sort gate)” value is recorded as “low polyreactivity”.

For “QVQLVESGGGLVQAGGSLRLSCAASGFIFNSYAMGWYRQAPGKERELVAAISRRGSSTYYADSVKGRFTISRDNAKNTVYLQMNSLKPEDTAVYYCAKRDRSTSWYLRDYWGQGTQVTVSS”, the “polyreactivity (PSR sort gate)” value is recorded as “high polyreactivity”.

In the case of “QVQLVESGGGLVQAGGSLRLSCAASGFIFNVYDMGWYRQAPGKERELVAAISTSGSNTYYADSVKVRFTISRDNAKNTVYLQMNSLKPEDTAVYYCNAVRVRVRWHYYAVYYWGQGTQVTVSS”, the “polyreactivity (PSR sort gate)” value is reported as “high polyreactivity”.

As to “QVQLVESGGGLVQAGGSLRLSCAASGFIFNYYAMGWYRQAPGKEREFVAAITWRGGSTNYADSVKGRFTISRDNAKNTVYLQMNSLKPEETAVYYCAAYSVWGGSYLALDYWGQGTQVTVSS”, the “polyreactivity (PSR sort gate)” value is given as “low polyreactivity”.

Consider “QVQLVESGGGLVQAGGSLRLSCAASGFIFNYYAMGWYRQAPGKERELVAAISPSGDNTYYADSVKGRFTISRDNAKNTVYLQMNSLKPEDTAVYYCNKVQGSWRVPYYYWGQGTQVTVSS”, for which the “polyreactivity (PSR sort gate)” value is “high polyreactivity”.

As to “QVQLVESGGGLVQAGGSLRLSCAASGFIFNYYTMGWYRQAPGKEREFVAAIRRSGTRTYYADSVKGRFTISRDNAKNTVYLQMNSLKPEDTAVYYCAADVYRTYGMDYWGQGTQVTVSS”, the “polyreactivity (PSR sort gate)” value was “high polyreactivity”.

In the case of “QVQLVESGGGLVQAGGSLRLSCAASGFIFPANAMGWYRQAPGKERQFVAAITRRGGSTYYADSVKGRFTISRDNAKNTVYLKMNSLKPEDTAVYYCAARVLSLYTYYYWGQGTQVTVYS”, the “polyreactivity (PSR sort gate)” value was “high polyreactivity”.

Consider “QVQLVESGGGLVQAGGSLRLSCAASGFIFPGNAMGWYRPAPGKERELVAAISNSGSRTYYADSVKGRLTISRDNAKNTVYLQMNSLIPEDTAVYYCNADVHIRGWPYDYWGQGTQVTVSS”, for which the “polyreactivity (PSR sort gate)” value is recorded as “low polyreactivity”.

With “QVQLVESGGGLVQAGGSLRLSCAASGFIFPGNVMGWYRQAPGKERELVAAITWSGGSTYYADSVKGRFTISRDNAKNTVYLQMNSLKPEDTAVYYCNADAFSFFGYLERMEYWGQGTLVTVSS”, the “polyreactivity (PSR sort gate)” value is recorded as “low polyreactivity”.

Turning to “QVQLVESGGGLVQAGGSLRLSCAASGFIFPGYAMGWYRQAPGKERELVAAISVSGGSTFYADSVKGRFTISRDNAKYTVYLQMNSLKPEDTAVYYCNARGYTWSYPLGIRVRYDYWGQGTQVTVSS”, the “polyreactivity (PSR sort gate)” value is on record as “high polyreactivity”.

Take “QVQLVESGGGLVQAGGSLRLSCAASGFIFPGYAMGWYRQAPGKERELVATISRRGGSTYYADSVKGRFTISRDNAKNTVYLQMNSLQPEDTAVYYCNRIVTYGWQYDYDYWGQGTQVTVSS”: the “polyreactivity (PSR sort gate)” value is recorded as “high polyreactivity”.

Turning to “QVQLVESGGGLVQAGGSLRLSCAASGFIFPHYTMGWYRPAPGKERELVAAISSSGGSTYYADSVKGRFTISRDNANNTVYLQMNSLKPEDTAVYYCAADWSITYGDGGYWGQGTQVTVSS”, the “polyreactivity (PSR sort gate)” value is listed as “low polyreactivity”.

For the sequence “QVQLVESGGGLVQAGGSLRLSCAASGFIFPNNAMGWYRHAPGKERELVARISYGGGDTHYADSVKGRFTISRDNAKNTVYLQMNSLKPEDTAVYYCAVKDGQDDYWGQGTQVTVSS”, the “polyreactivity (PSR sort gate)” value is reported as “low polyreactivity”.

“QVQLVESGGGLVQAGGSLRLSCAASGFIFPRYAMGWYRQAPGKERELVAAISYSGGSTYYADSVKGRFTISRDNAKNTVYLQMNSLKPEDTAVYYCNAYFLSQYQRAYRDDYWGQGTQVTVST”: the “polyreactivity (PSR sort gate)” value was “high polyreactivity”.

As for “QVQLVESGGGLVQAGGSLRLSCAASGFIFPRYAMGWYRQAPGKERELVAAISYSGGSTYYADSVKGRFTISRDNAKNTVYLQMNSLKPEDTAVYYCNTAPWWRTSSDYEYWGQGTQVTVSS”, the “polyreactivity (PSR sort gate)” value was “high polyreactivity”.

Consider “QVQLVESGGGLVQAGGSLRLSCAASGFIFPRYTMGWYRQAPGKERELVASITRGVRTHYADSVKGRFTISRDNAKNTVYLQMNSLKPEDTAVYYCARRNDYVYTRHFDSWGQGTQVTVSS”, for which the “polyreactivity (PSR sort gate)” value is on record as “high polyreactivity”.

Consider “QVQLVESGGGLVQAGGSLRLSCAASGFIFPTYAMGWYRQAPGKEREFVASITRRGGSTYYADSVKGRFTISRDNAKNTVYLQMNSLKPEDTAVYYCAAGYYGFRGGGSDYWGQGTQVTVSS”, for which the “polyreactivity (PSR sort gate)” value was “high polyreactivity”.

Take “QVQLVESGGGLVQAGGSLRLSCAASGFIFPTYAMGWYRQAPGKERELVATITTNAGGTYYADSVKGRFTISRDNAKNTVYLQMNSLKPEDTAVYYCAHDYDGYVWDTEYDYWGQGTQVTVSS”: the “polyreactivity (PSR sort gate)” value was “low polyreactivity”.

“QVQLVESGGGLVQAGGSLRLSCAASGFIFPVYTKGWYRQAPGKERELVAAITQIGGSTHYADSVKGRFTISRDNAKNTVYLQMNSLKPEDTAVDYCNAVPSYGTEYDYWGQGTQVTVSS”: the “polyreactivity (PSR sort gate)” value is recorded as “low polyreactivity”.

Consider “QVQLVESGGGLVQAGGSLRLSCAASGFIFPVYTMGWSRQAPGKERELVGAITQIGGSTHYADSVKGRFSISRDNAKNTVYIQMNSLTPDDTAVYYCNAVPSYGTEYDYWGQGTHVTVSS”, for which the “polyreactivity (PSR sort gate)” value is listed as “low polyreactivity”.

Take “QVQLVESGGGLVQAGGSLRLSCAASGFIFPWYAMGWSRQAPGKERELVAIISWDTGSTYYADSVKGRFTISRDNAKNTVYLQMNSLKPEDTAVYYCVAYVGSTYSAPEYYWGQGTQVTVSS”: the “polyreactivity (PSR sort gate)” value was “low polyreactivity”.

As to “QVQLVESGGGLVQAGGSLRLSCAASGFIFPWYAMGWYRQAPGKERELVAIISWDTGSTYYADSVKGRFTISRDNAKNTVYLQMNSLKPEDTAVYYCAAAYYYYVSGWFDYWGQGTQVTVSS”, the “polyreactivity (PSR sort gate)” value is “low polyreactivity”.

“QVQLVESGGGLVQAGGSLRLSCAASGFIFPYAMGWYRQAPGKEREMVAAISSTDGSTYYADSVKGRFTISRDNAKNTVYLQMNSLKPEDTAVYSCNAPFSFARYPSSWHYWDYYYWGQGTQVTVSS”: the “polyreactivity (PSR sort gate)” value is on record as “low polyreactivity”.

As to “QVQLVESGGGLVQAGGSLRLSCAASGFIFPYFAMGWYRQAPGKERELVAAISGSGGSTYYADSVKGRFTISRDNAKNTVYLQMNSLKPEDTAVYYCAASARRLNMGYWGQGTQVTVSS”, the “polyreactivity (PSR sort gate)” value was “high polyreactivity”.

On to “QVQLVESGGGLVQAGGSLRLSCAASGFIFPYNAMGWYRQAPGKERELVAAITYRDGSTYYPDSVKGRFTISRDNANNTVYGQMNSLKPEDTAVYYCAADRYVYWDLYGYWGQGTQVTVSS”, for which the “polyreactivity (PSR sort gate)” value was “low polyreactivity”.

Take “QVQLVESGGGLVQAGGSLRLSCAASGFIFPYYAMGWYRQAPGKERELVAAISARGGSTYYADSVKGRFTISRDNAKNTFYLQMNRLKPEDTAVYYCAAPYPRWTGKDYDYWGQGTQVTVSS”: the “polyreactivity (PSR sort gate)” value was “high polyreactivity”.

Regarding “QVQLVESGGGLVQAGGSLRLSCAASGFIFPYYAMGWYRQAPGKERELVAAISSSGGRTYYADSVKGRFTISRDNAKNTVYLQMNSLKPEDTAVYYCNARPNPYLGYGYWGQGTQVTVSS”, the “polyreactivity (PSR sort gate)” value is reported as “high polyreactivity”.

As to “QVQLVESGGGLVQAGGSLRLSCAASGFIFQGNAMGWYRQAPGKEREFVAAISWSGGRTYYADSVKGRFTISRDNAKNTVYLQMNSLKPEDTAVYYCAVTPVRFASGGAWMDYWGQGTQVTVSS”, the “polyreactivity (PSR sort gate)” value was “high polyreactivity”.

For “QVQLVESGGGLVQAGGSLRLSCAASGFIFQRNAMGWYRQAPGKERELVAAIRGTGGSTYYADSVKGRFTISRDNAKNTVYLQMNSLKPEDTAVYYCNRLSSYHMDYWGQGTQVTVSS”, the “polyreactivity (PSR sort gate)” value is listed as “high polyreactivity”.

As to “QVQLVESGGGLVQAGGSLRLSCAASGFIFQRYAMGWYRQAPGKESELVAAISSSGGSTYYADSVKGRFTISRDNAKNTVYLQMNSLKPEDTAVNYCAARVPPRTLAYYYWGQGTQVTVSS”, the “polyreactivity (PSR sort gate)” value is reported as “high polyreactivity”.

In the case of “QVQLVESGGGLVQAGGSLRLSCAASGFIFQYYAMGWYRQAPGKERELVAAINWSGGSTYYADSVKGRFTISRDNAKNSVYLQMNSLKPEDTAVYYCAADEYTSGYEYWGQGTQVTVSS”, the “polyreactivity (PSR sort gate)” value is given as “high polyreactivity”.

Values taken from the nanobody polyreactivity screen of Harvey et al. (2022).
